Molecular target: T1, leukocyte function antigen-1 (LFA-1), composed of CD11a and CD18, on the surface of white blood cells (human, UniProt P20701 26-1170; P05107 23-769)
T1 construct: whole, on cells; also called CD11a/CD18; wild type form of the receptor
Test: flow cytometry, THP-1 cells mixed with LtxA-FITC for 30 min at 0 C

T1 sequence (P20701 26-1170, chain 1 of 2): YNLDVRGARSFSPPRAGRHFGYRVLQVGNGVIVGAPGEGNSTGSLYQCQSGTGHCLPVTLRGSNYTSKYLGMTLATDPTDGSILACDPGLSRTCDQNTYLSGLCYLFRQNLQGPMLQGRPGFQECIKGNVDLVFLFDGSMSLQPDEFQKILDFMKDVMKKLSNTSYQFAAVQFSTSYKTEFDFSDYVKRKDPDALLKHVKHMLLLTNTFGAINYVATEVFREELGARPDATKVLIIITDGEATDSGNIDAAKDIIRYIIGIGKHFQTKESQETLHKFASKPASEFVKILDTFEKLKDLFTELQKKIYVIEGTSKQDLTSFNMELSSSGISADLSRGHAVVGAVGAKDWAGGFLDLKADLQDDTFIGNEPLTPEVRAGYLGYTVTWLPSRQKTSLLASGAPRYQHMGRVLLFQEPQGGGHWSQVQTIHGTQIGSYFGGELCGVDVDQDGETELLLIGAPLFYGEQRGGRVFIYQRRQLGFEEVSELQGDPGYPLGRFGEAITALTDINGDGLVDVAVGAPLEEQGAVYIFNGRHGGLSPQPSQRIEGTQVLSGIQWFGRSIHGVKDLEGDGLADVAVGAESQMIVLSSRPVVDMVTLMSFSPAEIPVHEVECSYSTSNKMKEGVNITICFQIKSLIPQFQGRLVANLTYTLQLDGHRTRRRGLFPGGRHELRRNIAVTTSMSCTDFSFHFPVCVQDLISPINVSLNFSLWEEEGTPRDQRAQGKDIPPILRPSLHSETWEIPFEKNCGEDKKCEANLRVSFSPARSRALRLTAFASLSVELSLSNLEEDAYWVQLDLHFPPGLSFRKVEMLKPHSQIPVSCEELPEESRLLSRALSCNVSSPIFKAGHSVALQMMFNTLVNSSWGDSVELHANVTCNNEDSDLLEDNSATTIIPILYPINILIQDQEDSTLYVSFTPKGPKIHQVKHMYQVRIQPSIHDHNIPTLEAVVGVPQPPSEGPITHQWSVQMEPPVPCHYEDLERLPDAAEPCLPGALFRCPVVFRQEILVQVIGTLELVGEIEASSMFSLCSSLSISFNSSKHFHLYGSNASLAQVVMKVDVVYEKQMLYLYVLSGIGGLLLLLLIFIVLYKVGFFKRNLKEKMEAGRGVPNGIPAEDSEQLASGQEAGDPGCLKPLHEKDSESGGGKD
T1 sequence (P05107 23-769, chain 2 of 2): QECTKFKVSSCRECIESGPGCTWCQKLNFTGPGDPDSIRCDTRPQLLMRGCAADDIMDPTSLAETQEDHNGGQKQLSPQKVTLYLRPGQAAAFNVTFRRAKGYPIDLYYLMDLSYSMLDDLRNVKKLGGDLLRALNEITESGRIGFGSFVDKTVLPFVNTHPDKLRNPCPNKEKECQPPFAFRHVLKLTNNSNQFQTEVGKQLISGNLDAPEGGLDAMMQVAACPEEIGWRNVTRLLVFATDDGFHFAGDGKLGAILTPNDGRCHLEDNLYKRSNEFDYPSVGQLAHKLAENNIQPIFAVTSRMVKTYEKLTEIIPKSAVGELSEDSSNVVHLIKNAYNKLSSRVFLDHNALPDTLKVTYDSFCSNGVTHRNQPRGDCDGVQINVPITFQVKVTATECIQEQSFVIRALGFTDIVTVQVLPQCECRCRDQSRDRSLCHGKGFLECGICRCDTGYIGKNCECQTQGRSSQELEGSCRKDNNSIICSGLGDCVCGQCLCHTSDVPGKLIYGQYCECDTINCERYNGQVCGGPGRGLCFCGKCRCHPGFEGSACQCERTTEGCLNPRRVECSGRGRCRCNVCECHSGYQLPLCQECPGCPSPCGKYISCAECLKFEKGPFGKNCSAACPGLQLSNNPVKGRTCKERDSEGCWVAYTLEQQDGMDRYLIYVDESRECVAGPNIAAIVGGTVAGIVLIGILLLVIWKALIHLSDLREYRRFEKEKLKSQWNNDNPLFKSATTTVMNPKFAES

B1: LtxA covalently labeled with fluorescein isothiocyanate (LtxA-FITC) (other)
chain: MATTSLLNTKQQAAQFANSVADRAKENIDAAKEQLQKALDKLGKTGKKLTLYIKNYKKGNGLTALIKAAQKLGIEVYHEGKDGPALTNGILNTGKKLLGLTERGLTLFAPELDKWIQGNKHLSNSVGSTGNLTKAIDKVQSVLGTLQAFLNTAFSGMDLDALIKARQNGKNVTDVQLAKASLNLINELIGTISSITNNVDTFSKQLNKLGEALGQVKHFGSFGDKLKNLPKLGNLGKGLGALSGVLSAISAALLLANKDADTATKAAAAAELTNKVLGNIGKAITQYLIAQRAAAGLSTTGPVAGLIASVVSLAISPLSFLGIAKQFDRARMLEEYSKRFKKFGYNGDSLLGQFYKNTGIADAAITTINTVLSAIAAGVGAASAGSLVGAPIGLLVSAITSLISGILDASKQAVFEHIANQLADKIKAWENKYGKNYFENGYDARHSAFLEDSLKLFNELREKYKTENILSITQQGWDQRIGELAGITRNGDRIQSGKAYVDYLKKGEELAKHSDKFTKQILDPIKGNIDLSGIKGSTTLTFLNPLLTAGKEERKTRQSGKYEFITELKVKGRTDWKVKGVPNSNGVYDFSNLIQHAVTRDNKVLEARLIANLGAKDDYVFVGSGSTIVNAGDGYDVVDYSKGRTGALTIDGRNATKAGQYKVERDLSGTQVLQETVSKQETKRGKVTDLLEYRNYKLDYYYTNKGFKAHDELNSVEEIIGSTLRDKFYGSKFNDVFHGHDGDDLIYGYDGDDRLYGDNGNDEIHGGQGNDKLYGGAGNDRLFGEYGNNYLDGGEGDDHLEGGNGSDILRGGSGNDKLFGNQGDDLLDGGEGDDQLAGGEGNDIYVYRKEYGHHTITEHSGDKDKLSLANINLKDVSFERNGNDLLLKTNNRTAVTFKGWFSKPNSSAGLDEYQRKLLEYAPEKDRARLKRQFELQRGKVDKSLNNKVEEIIGKDGERITSQDIDNLFDKSGNKKTISPQELAGLIKNKGKSSSLMSSSRSSSMLTQKSGLSNDISRIISATSGFGSSGKALSASPLQTNNNFNSYANSLATTAA
modifications: covalently labeled with fluorescein isothiocyanate (FITC); sites not stated
notes: also called leukotoxin-FITC
B1: binds.

— EP2488198B1 (Rutgers, the State University of New Jersey, dated 2016)
